# Assay results taken from US20200377563A1 (Pieris, published 2020).
# Values joined by “and” are separate entries in the source; they are usually repeats but may differ in a detail not shown here. Identical values can stand only once. Like-named read-outs stand apart in the source and are kept apart here.
# B1: negative control SEQ ID NO: 43 (other)
# chain: QDSTSDLIPAPPLSKVPLQQNFQDNQFQGKWYVVGLAGNAILREDKDPQKMYATIYELKEDKSYNVTSVLFRKKKCDYWIRTFVPGCQPGEFTLGNIKSYPGLTSYLVRVVSTNYNQHAMVFFKKVSQNREYFKITLYGRTKELTSELKENFIRFSKSLGLPENHIVFPVPIDQCIDG
# B2: fusion protein of SEQ ID NO: 7 (designed binder)
# chain: QDSTSDLIPAPPLSKVPLQQNFQDNQFHGKWYVVGEAGNLLLREDKDPRKMTATIYELKEDKSYDVTRVEFGAKTYKYQIGTFVPGSQPGEFTLGGIESMPGMTSFLVRVVSTNYNQHAIVFFKYVYQNREYFEITLYGRTKELTSELKENFIRFSKSLGLPENHIVFPVPIDQAIDGSGGGGSLAEAKEAANAELDSYGVSDFYKRLIDKAKTVEGVEALKDAILAALPSAWSHPQFEK
# B3: benchmark antibody 2 (antibody, human IgG4, kappa, V domains shown)
# VH: QVQLVQSGAEVKKPGSSVKVSCKASGYSFTDYHISWVRQAPGQGLEWMGVINPEYGTTDYNQRFKGRVTITADESTSTAYMELSSLRSEDTAVYYCARYDYFTGTGAYWGQGTLVTVSS
# VL: DIVMTQTPLSLSVTPGQPASISCRSSQSLKHSRGNTFLHWYLQKPGQSPQLLIYKVSNRFIGVPDRFSGSGSGTDFTLKISRVEAEDVGVYYCSQSTHYPFTFGQGTKLEIKR
# B4: benchmark 3 (antibody, human IgG1, kappa, V domains shown)
# VH: QVQLVQSGAEVKKPGASVKVSCKVSGKTFWSYGINWVRQAPGKGLEWMGYIYIGTGYTEPNPKYKGRVTMTEDTSTDTAYMELSSLRSEDTAVYYCATIGGYYGNFDQWGQGTTVTVSS
# VL: DVVMTQSPLSLPVTLGQPASISCRSSQSLLISGGKTYLNWFQQRPGQSPRRLIYLVSKLDQGVPDRFSGSGSGTDFTLKISRVEAEDVGVYYCWQGTYFPLTFGQGTKLEIKR
# B5: lipocalin mutein SEQ ID NO: 46 (designed binder)
# chain: QDSTSDLIPAPPLSKVPLQQNFQDNQFHGKWYVVGEAGNLLLREDKDPRKMTATIYELREDKSYDVTRVEFGVKTYKYQIGTFVPGSQPGEFTLGGIKSMPGMTSFLVRVVSTDYNQHAMVFFKYVYQNREYFEITLYGRTKELTSELKENFIRFSKSLGLPENHIVFPVPIDQAIDG
# B6: lipocalin mutein SEQ ID NO: 45 (designed binder)
# chain: QDSTSDLIPAPPLSKVPLQQNFQDNQFHGKWYVVGEAGNLILREDKDPRKMTATIYELKEDKSYDVTRVEFGVKTRKYRIGTFVPGSQPGEFTLGGIKSMPGMTSFLVRVVSTNYNQHAMVFFKYVYQNREYFEITLYGRTKELTSELKENFIRFSKSLGLPENHIVFPVPIDQAIDG
# B7: cynomolgus monkey IL-17A (ligand)
# chain: GIAIPRNSGCPNSEDKNFPRTVMVNLNIHNRNTSTNPKRSSDYYNRSTSPWNLHRNEDPERYPSVIWEAKCRHLGCVKADGNVDYHMNSVPIQQEILVLRREPRHCPNSFRLEKILVSVGCTCVTPIVHHVA
# notes: also called cIL-17A
# B8: marmoset IL-17A (ligand)
# chain: GIASPQNPGCPNAEDKNFPRTVMVNLNIRNRNTNSKRASDYYNRSSSPWNLHRNEDPERYPSVIWEAKCRHLGCVDADGNVDYHMNSVPIQQEILVLRREPRHCTNSFRLEKMLVSVGCTCVTPIVRHVA
# notes: also called marmoset monkey IL-17A
# B9: human IL-23 (ligand)
# chain 1: RAVPGGSSPAWTQCQQLSQKLCTLAWSAHPLVGHMDLREEGDEETTNDVPHIQCGDGCDPQGLRDNSQFCLQRIHQGLIFYEKLLGSDIFTGEPSLLPDSPVGQLHASLLGLSQLLQPEGHHWETQQIPSLSPSQPWQRLLLRFKILRSLQAFVAVAARVFAHGAATLSP
# chain 2: IWELKKDVYVVELDWYPDAPGEMVVLTCDTPEEDGITWTLDQSSEVLGSGKTLTIQVKEFGDAGQYTCHKGGEVLSHSLLLLHKKEDGIWSTDILKDQKEPKNKTFLRCEAKNYSGRFTCWWLTTISTDLTFSVKSSRGSSDPQGVTCGAATLSAERVRGDNKEYEYSVECQEDSACPAAEESLPIEVMVDAVHKLKYENYTSSFFIRDIIKPDPPKNLQLKPLKNSRQVEVSWEYPDTWSTPHSYFSLTFCVQVQGKSKREKKDRVFTDKTSATVICRKNASISVRAQDRYYSSSWSEWASVPCS
# notes: Heterodimer of p19 and p40; Biotinylated in the ELISA formats; also called hIL-23; hIL23
# B10: mouse IL-23 (ligand)
# chain 1: VPRSSSPDWAQCQQLSRNLCMLAWNAHAPAGHMNLLREEEDEETKNNVPRIQCEDGCDPQGLKDNSQFCLQRIRQGLAFYKHLLDSDIFKGEPALLPDSPMEQLHTSLLGLSQLLQPEDHPRETQQMPSLSSSQQWQRPLLRSKILRSLQAFLAIAARVFAHGAATLTEPLVPTA
# chain 2: MWELEKDVYVVEVDWTPDAPGETVNLTCDTPEEDDITWTSDQRHGVIGSGKTLTITVKEFLDAGQYTCHKGGETLSHSHLLLHKKENGIWSTEILKNFKNKTFLKCEAPNYSGRFTCSWLVQRNMDLKFNIKSSSSSPDSRAVTCGMASLSAEKVTLDQRDYEKYSVSCQEDVTCPTAEETLPIELALEARQQNKYENYSTSFFIRDIIKPDPPKNLQMKPLKNSQVEVSWEYPDSWSTPHSYFSLKFFVRIQRKKEKMKETEEGCNQKGAFLVEKTSTEVQCKGGNVCVQAQDRYYNSSCSKWACVPCRVRS
# notes: also called mIL-23
# How the values were obtained:
# human IL-23 [1] = target: B9; test: competition ELISA (MSD): biotinylated hIL-23 tracer pre-incubated with the titrated control, free hIL-23 captured on coated soluble hIL-23R
# Protocol: (§1) All incubation steps were performed with shaking 300 rpm, and the plate was washed after each incubation step with 80 μl PBS/0.05% Tween 20 for five times using a Biotek EL405 select CW washer. […] After washing, the receptor-coated wells were blocked with 60 μl PBS-T/BSA for 1 h at room temperature.
# (§2) After washing, 60 μl MSD Read Buffer T (2×) was added to each well and the plate was read within 15 min.
# (§3) The resulting ECL signal was measured using the SECTOR Imager 2400 (Meso Scale Discovery).
# human IL-23 [2] = target: B9; test: SPR (Biacore T200), biotinylated binder captured on CAP chip, hIL-23 as analyte, buffer with 350 mM NaCl
# Protocol: To this end, undiluted Biotin CAPture Reagent was applied at a flow rate of 2 μL/min for 300 s. […] The reference channel was loaded with Biotin CAPture Reagent only.
# Applying a flow rate of 30 μL/min, a single cycle kinetics approach was used with a sample contact time of 300 s and a dissociation time of 4000 s or 7200 s. After ligand immobilization, all 5 concentrations were applied consecutively in ascending order before the dissociation was monitored. All measurements were performed at 25° C.
# human IL-23 [3] = target: B9; test: competition ELISA (MSD), biotinylated hIL-23 pre-incubated with binder, free hIL-23 captured on coated hIL-23R
# Protocol: as §1, §2, §3
# human IL-17A = human IL-17A (human, UniProt Q16552 24-155, limits assumed); test: cell-based or functional assay
# human IL-23 [4] = target: B9; test: cell-based or functional assay
# human IL-23 [5] = target: B9; test: SPR (Biacore T200), hIL-23 amine-coupled on chip, mutein as analyte
# human IL-23 [6] = target: B9; test: competition ELISA (MSD), biotinylated hIL-23 pre-incubated with binder, free hIL-23 captured on coated hIL-23R; remark: listed apart in the source
# [7] = target: T1, lipocalin mutein of SEQ ID NO: 1; test: solution competition ELISA: 0.25 nM SEQ ID NO: 1 pre-incubated with varied ligand, free mutein captured on immobilised biotinylated hIL-17A
# T1 construct: Mutein of human tear lipocalin; also called Tlc mutein
# Protocol: In the following detailed experimental protocol, incubation and washing steps were performed as described above in the competition ELISA protocol. A 384-well plate suitable for fluorescence measurements (Greiner FLUOTRAC™ 600, black flat bottom, high-binding) was coated with 20 μl of Neutravidin at a concentration of 5 μg/ml in PBS over night at 4° C. After washing, the Neutravidin-coated wells were blocked with 100 μl blocking buffer (PBS-T/BSA) for 1h at room temperature.
# [8] = target: T2, lipocalin mutein of SEQ ID NO: 2; test: solution competition ELISA: 0.5 nM SEQ ID NO: 2 pre-incubated with varied ligand, free mutein captured on immobilised biotinylated hIL-23
# T2 construct: Mutein of human lipocalin 2 (NGAL); Also used as negative control in the IL-17A cell assay; also called hNGAL mutein
# T1 sequence (chain, as listed by the source): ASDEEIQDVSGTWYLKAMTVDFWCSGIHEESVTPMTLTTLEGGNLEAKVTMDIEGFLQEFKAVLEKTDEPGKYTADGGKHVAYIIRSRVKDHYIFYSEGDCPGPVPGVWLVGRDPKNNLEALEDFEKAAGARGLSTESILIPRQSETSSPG
binder,measurement,setting,value
B1,binding result,human IL-23 [1],no binding
B2,Kd,human IL-23 [2],2.4 nM
same,IC50,human IL-23 [3],1.11 nM
B3,"IL-17A-induced G-CSF secretion in U87-MG cells, EC50, average",human IL-17A,0.12 nM
same,"IL-17A-induced G-CSF secretion in U87-MG cells, EC50, single experiment",human IL-17A,0.14 nM and 0.1 nM
B4,"hIL-23-induced proliferation of Ba/F3 cells with hIL-23R and hIL-12Rβ1, EC50, average",human IL-23 [4],3 nM
same,"hIL-23-induced proliferation of Ba/F3 cells, EC50, single experiment",human IL-23 [4],3.1 nM and 2.9 nM
B5,Kd,human IL-23 [5],0.6 nM
same,koff,human IL-23 [5],4e-05 s⁻¹
same,kon,human IL-23 [5],70000 M⁻¹ s⁻¹
same,IC50,human IL-23 [6],1.1 nM
same,"hIL-23-induced proliferation of Ba/F3 cells with hIL-23R and hIL-12Rβ1, EC50",human IL-23 [4],5.4 nM
B6,Kd,human IL-23 [5],0.1 nM
same,koff,human IL-23 [5],3e-05 s⁻¹
same,kon,human IL-23 [5],300000 M⁻¹ s⁻¹
same,IC50,human IL-23 [6],0.1 nM
same,"hIL-23-induced proliferation of Ba/F3 cells with hIL-23R and hIL-12Rβ1, EC50",human IL-23 [4],3.7 nM
B7,IC50,[7],0.1 nM
B8,IC50,[7],0.2 nM
B9,IC50,[8],0.9 nM
B10,IC50,[8],0.5 nM
